Biological target: XRCC4 (X-ray repair cross-complementing protein 4) (UniProt Q13426)
Assay: co-IP with anti-Flag M2 beads
Details: reference: Flag-AATF wild type, IR; sites S189

Substance: AATF (apoptosis antagonizing transcription factor) (from UniProt Q9NY61) Flag-AATF S189A, IR
- binding against the reference: stronger

From paper PMC12120020
